For data set [1], the system named is amyloid β 1-40. The data set is described as follows: Degradation of Aβ 1-40 in human plasma pool (Example 28). It is filed as biochemical. As to conditions: room temperature, 1 hour. How it is done:
Blood from twelve individuals (6 females and 6 males) were collected into pre-chilled heparin-plasma tubes at the healthcare centre (AstraZeneca) at three different time points. Plasma was prepared by centrifugation at 2500×g for 20 min at 4° C. Plasma samples were collected and transferred to pre-chilled polypropylene tubes and immediately frozen and stored at −70° C. prior to use. Plasma was thawed and pooled from 12 individuals just before the experiment. Aβ 1-40 and 1-42 in plasma pool was degraded by human Fc-Nep or mouse Fc-Nep with corresponding vehicles (50 mM Tris-HCl, 150 mM NaCl pH 7.5). The following final concentrations of the Fc-Nep constructs were used, 100, 32, 10, 3.2, 1, 0.3, 0.1 and […] and the degradation occurred at room temperature for 1 hour while shaking on an orbital shaker. The enzymatic reaction was stopped by adding Phosphoramidone (10 μM final concentration). Concentration of amyloid β 1-40 in human plasma pool was measured using ELISA kit (Biosource; KHB3481) according to the manufacturers instructions.

The subject of data set [2] is Aβ 1-42. Put plainly: Degradation of Aβ 1-42 in APPswe-tg mouse plasma pool (Example 28). The conditions noted are these: room temperature, 1 hour. It is filed as biochemical. The protocol: Mouse plasma collected from 9 animals was stored at −70° C. Plasma was thawed and pooled just before the experiment. Aβ 1-40 and 1-42 in plasma pool was degraded by human Fc-Nep or mouse Fc-Nep with corresponding vehicles (50 mM Tris-HCl, 150 mM NaCl pH 7.5). The following final concentrations of the Fc-Nep constructs were used, 100, 32, 10, 3.2, 1, 0.3, 0.1 and […] and the degradation occurred at room temperature for 1 hour while shaking on an orbital shaker. The enzymatic reaction was stopped by adding Phosphoramidone (10 μM final concentration).
After degradation, a final concentration of 4.7 mM EDTA was added to the tg-mouse plasma tubes and the plasma samples were diluted 3 times in sample diluent, before the concentration of Aβ42 was analyzed using ELISA kit Innotest® β-Amyloid1-42 (Innogenetics, lot#177462, ref#80177) according to the manufacturers instructions. The highest concentration (100 μg/ml) of human Fc-Nep and mouse Fc-Nep degraded human plasma amyloid β 1-40 by 71% and 77%, respectively and Aβ 1-42 by 34% and 53%, respectively, as compared to plasma without Fc-Nep treatment.

The test system of data set [3] is fluorogenic peptide substrate V—Mca-Arg-Pro-Gly-Phe-Ser-Ala-Phe-Lys(Dnp)-OH. The data set is described as follows: Neprilysin enzyme activity FRET assay, cell media. It is filed as biochemical. How it is done: The Neprilysin enzymatic activity was determined in a fluorescence resonance energy transfer (FRET) assay. Recombinant Human Neprilysin (R&D Systems), culture medium from Neprilysin or Fc-Neprilysin producing cells (AZ Sodertalje) or purified Neprilysin or Fc-Neprilysin was added into 96-well plate containing 10 μM of fluorogenic peptide substrate V—Mca-Arg-Pro-Gly-Phe-Ser-Ala-Phe-Lys(Dnp)-OH (R&D Systems). The final concentration of the control recombinant human Neprilysin was 0.1 or 0.25 μg/ml. 10 μM of Neprilysin inhibitor phosphoramidone (BIOMOL) was added into some wells in order to control the specificity of the signal in the assay and verify the specific Neprilysin activity. Following addition of all components to wells, plate was immediately placed into a fluorescent plate reader (Ascent) and signal was recorded for every minute for 20 minutes at the excitation 340 nm and emission 405 nm. The activity of enzyme was evaluated by calculating the velocity of reaction−Slope coefficient=ΣΔRFU/Δt. In order to compare the specific activity of the commercial recombinant Neprilysin and Fc-Neprilysin fusion protein, we introduced the specific activity coefficient, which is calculated according to this formula: Specific activity=slope coefficient/pmol of Neprilysin or monomer of Fc-Neprilysin in assay. […]

Data set [4] is described as follows: Plasma exposure (Example 25). The conditions noted are these: for Mean plasma exposure: 5 mg/kg i.v. It is filed as in vivo, C57BL/6 mice. How it is done: (§1) 20-21 weeks old female C57BL/6 mice (8 mice/group) received vehicle or hFc-Nep at 5 mg/kg as a single intravenous injection and Aβ40 was analysed at different time points after injection (between 1.5-168 hours, i.e., up to 1 week). The γ-secretase inhibitor M-550426 was given per orally and the animals were treated for 3 hours. A blank group was also included in the study. […] Blood collection, plasma processing and measurement of mouse Aβ40 levels in plasma were basically as described in Example 27.

The subject of data set [5] is Aβ40. The data set is described as follows: Plasma Aβ40 time-response after single i.v. dose (Example 25). Type of data set: in vivo, C57BL/6 mice. As to conditions: 5 mg/kg single i.v., all time points (1.5, 6, 12, 24, 36, 72 and 168 hours). The protocol:
The objective of this study was to evaluate the time-response relationship of the hFc-Nep in plasma of female C57BL/6 mice after a single dose. The specific purpose is to find how long the reducing effect of hFc-Nep stays in the plasma, and to correlate the effect to the level of exposure of test compound in plasma. The γ-secretase inhibitor M-550426 is included as a positive compound.
as §1

Setting [6] is: highest concentration 100 μg/ml.

The term EC50 denotes the concentration needed to bring the measured effect to its halfway point. A lower EC50 goes with a more potent agent.

B1: Fc-Neprilysin: extracellular domain of human Neprilysin fused to the human IgG2 Fc domain (including hinge), Fc at N-terminus; SEQ ID NO 11 (protein)
chain: ERKCCVECPPCPAPPVAGPSVFLFPPKPKDTLMISRTPEVTCVVVDVSHEDPEVQFNWYVDGVEVHNAKTKPREEQFNSTFRVVSVLTVVHQDWLNGKEYKCKVSNKGLPAPIEKTISKTKGQPREPQVYTLPPSREEMTKNQVSLTCLVKGFYPSDIAVEWESNGQPENNYKTTPPMLDSDGSFFLYSKLTVDKSRWQQGNVFSCSVMHEALHNHYTQKSLSLSPGKYDDGICKSSDCIKSAARLIQNMDATTEPCTDFFKYACGGWLKRNVIPETSSRYGNFDILRDELEVVLKDVLQEPKTEDIVAVQKAKALYRSCINESAIDSRGGEPLLKLLPDIYGWPVATENWEQKYGASWTAEKAIAQLNSKYGKKVLINLFVGTDDKNSVNHVIHIDQPRLGLPSRDYYECTGIYKEACTAYVDFMISVARLIRQEERLPIDENQLALEMNKVMELEKEIANATAKPEDRNDPMLLYNKMTLAQIQNNFSLEINGKPFSWLNFTNEIMSTVNISITNEEDVVVYAPEYLTKLKPILTKYSARDLQNLMSWRFIMDLVSSLSRTYKESRNAFRKALYGTTSETATWRRCANYVNGNMENAVGRLYVEAAFAGESKHVVEDLIAQIREVFIQTLDDLTWMDAETKKRAEEKALAIKERIGYPDDIVSNDNKLNNEYLELNYKEDEYFENIIQNLKFSQSKQLKKLREKVDKDEWISGAAVVNAFYSSGRNQIVFPAGILQPPFFSAQQSNSLNYGGIGMVIGHEITHGFDDNGRNFNKDGDLVDWWTQQSASNFKEQSQCMVYQYGNFSWDLAGGQHLNGINTLGENIADNGGLGQAYRAYQNYIKKNGEEKLLPGLDLNHKQLFFLNFAQVWCGTYRPEYAVNSIKTDVHSPGNFRIIGTLQNSAEFSEAFHCRKNSYMNPEKKCRVW
On to B1, for which the “Degradation of amyloid β 1-40 compared to plasma without treatment” value in data set [1] (setting [6]) was determined as 66%. Besides, the values for the EC50 in data set [1] and in data set [2] were 580 nM and 1300 nM, respectively. Besides, in data set [2] (setting [6]), the “Degradation of Aβ 1-42 compared to plasma without treatment” value was 34%. For the same molecule, the figures for the “Specific activity (slope coefficient/pmol)” value in data set [3] (expression with pCEP4 vector) and in data set [3] (expression with pEAK10 vector) were 13.4 and 15.2, respectively. Also, the Mean plasma exposure in data set [4] (1 week (168 hours)) came to 38 µg/mL; in data set [4] (1.5 hours), 87 µg/mL. In addition, the half-life in mice result in data set [4] (5 mg/kg single i.v.) was “considerably long”. Besides, the “Aβ40 reduction in plasma compared to vehicle” value in data set [5] is 67-80%.

The values are drawn from patent publication US20080242590A1, “New Method 706” (ASTRAZENECA AB, priority 2007, published 2008).
